Test results: publication PMC4103857, “Specific Interaction with Cardiolipin Triggers Functional Activation of Dynamin-Related Protein 1” (PLoS ONE, 2014)
Values joined by “and” are separate entries in the source; they are usually repeats but may differ in a detail not shown here. Equal values may be shown once. Blank lines part the entries; values can stand above or below the molecule they belong to.

Experiments:
[1] = target: Dynamin-Related Protein 1 (Drp1) isoform 2 (human); test: SEC; gel filtration of the purified untagged isoforms; data not shown
[2] = target: the molecule itself; test: as above
[3] = target: the molecule itself; test: SEC; Drp1 (1 uM) incubated with GTP (1 mM) without liposomes in KCl buffer with 4 mM MgCl2, 30 min, 37 C; Sephadex S200; fractions immunoblotted with anti-Drp1

stoichiometry N [1]: 2 and 4
Molecule: Dynamin-Related Protein 1 (Drp1) isoform 2 (natural protein)

B1: Dynamin-Related Protein 1 (Drp1) isoform 3 (natural protein, human, UniProt O00429-4 1-699, looked up)
chain: MEALIPVINKLQDVFNTVGADIIQLPQIVVVGTQSSGKSSVLESLVGRDLLPRGTGIVTRRPLILQLVHVSQEDKRKTTGEENGVEAEEWGKFLHTKNKLYTDFDEIRQEIENETERISGNNKGVSPEPIHLKIFSPNVVNLTLVDLPGMTKVPVGDQPKDIELQIRELILRFISNPNSIILAVTAANTDMATSEALKISREVDPDGRRTLAVITKLDLMDAGTDAMDVLMGRVIPVKLGIIGVVNRSQLDINNKKSVTDSIRDEYAFLQKKYPSLANRNGTKYLARTLNRLLMHHIRDCLPELKTRINVLAAQYQSLLNSYGEPVDDKSATLLQLITKFATEYCNTIEGTAKYIETSELCGGARICYIFHETFGRTLESVDPLGGLNTIDILTAIRNATGPRPALFVPEVSFELLVKRQIKRLEEPSLRCVELVHEEMQRIIQHCSNYSTQELLRFPKLHDAIVEVVTCLLRKRLPVTNEMVHNLVAIELAYINTKHPDFADACGLMNNNIEEQRRNRLARELPSAVSRDKVASGGGGVGDGVQEPTTGNWRGMLKTSKAEELLAEEKSKPIPIMPASPQKGHAVNLLDVPVPVARKLSAREQRDCEVIERLIKSYFLIVRKNIQDSVPKAVMHFLVNHVKDTLQSELVGQLYKSSLLDDLLTESEDMAQRRKEAADMLKALQGASQIIAEIRETHLW
notes: ORF amplified by PCR and cloned into pTYB1; numbers count on: isoform 3; also called Variant 3; Isoform-3 WT; source: E. coli Rosetta, purified (chitin resin with thiol-induced cleavage, Q sepharose, Sephadex S200)
stoichiometry N [2]: 2 and 4

B2: Drp1 isoform 3 K557-560-569-571A (4KA mutant) (natural protein, human, UniProt O00429-4 1-699, looked up)
chain: MEALIPVINKLQDVFNTVGADIIQLPQIVVVGTQSSGKSSVLESLVGRDLLPRGTGIVTRRPLILQLVHVSQEDKRKTTGEENGVEAEEWGKFLHTKNKLYTDFDEIRQEIENETERISGNNKGVSPEPIHLKIFSPNVVNLTLVDLPGMTKVPVGDQPKDIELQIRELILRFISNPNSIILAVTAANTDMATSEALKISREVDPDGRRTLAVITKLDLMDAGTDAMDVLMGRVIPVKLGIIGVVNRSQLDINNKKSVTDSIRDEYAFLQKKYPSLANRNGTKYLARTLNRLLMHHIRDCLPELKTRINVLAAQYQSLLNSYGEPVDDKSATLLQLITKFATEYCNTIEGTAKYIETSELCGGARICYIFHETFGRTLESVDPLGGLNTIDILTAIRNATGPRPALFVPEVSFELLVKRQIKRLEEPSLRCVELVHEEMQRIIQHCSNYSTQELLRFPKLHDAIVEVVTCLLRKRLPVTNEMVHNLVAIELAYINTKHPDFADACGLMNNNIEEQRRNRLARELPSAVSRDKVASGGGGVGDGVQEPTTGNWRGMLATSAAEELLAEEASAPIPIMPASPQKGHAVNLLDVPVPVARKLSAREQRDCEVIERLIKSYFLIVRKNIQDSVPKAVMHFLVNHVKDTLQSELVGQLYKSSLLDDLLTESEDMAQRRKEAADMLKALQGASQIIAEIRETHLW
notes: Dynamin-related protein 1 (Drp1), human, splice variant 3 (lacking 37 residues in the B insert), all four B insert lysines replaced by alanine; numbers count on: isoform 3; also called Drp1-4KA; Drp1 4KA mutant; source: E. coli Rosetta, purified (chitin resin with thiol-induced cleavage, Q sepharose, Sephadex S200)
binding result [3]: binds
